The assay concerns the target truncated M1 C-terminal domain ([change], aa 165-252) (influenza/A/FPV/Rostock/34) (UniProt P03487). In words: raster image correlation spectroscopy.

As to “truncated M1 C-terminal domain ([change], aa 165-252) (from UniProt P03487 165-252) (domain or fragment)”, the brightness of M1 wt relative to M1-C (fold) stood at 4.3 fold.

The values are drawn from article doi:10.1101/369462.
